# Laboratory results from article PMC5457521.
# Columns and labels:
# [1] = molecular target: DENV2 sE FGA02 A259C, disulfide-linked dimer (Dengue virus serotype 2, strain FGA02); assay: SEC-MALS; sE alone, ~150 ug on Superdex 200 10/300 GL, Tris 50 mM, NaCl 500 mM (pH 8.0), 0.4 ml min^−1
# [2] = molecular target: DENV2 sE FGA02 L107C/A313C, disulfide-linked dimer (Dengue virus serotype 2, strain FGA02); assay: SEC
substance,measurement,setting,value
"DENV2 sE FGA02 A259C, disulfide-linked dimer (domain or fragment)",stoichiometry N,[1],2
"DENV2 sE FGA02 L107C/A313C, disulfide-linked dimer (domain or fragment)",stoichiometry N,[2],2
